The values that follow come from CN113683688A.

The target of this assay is HIV-1 P24重组蛋白 (原核细胞大肠杆菌表达的HIV-1 P24全长蛋白) (HIV-1) (UniProt P04591). Put plainly: indirect ELISA, serial two-fold dilution of the antibody. On the technique in general: In an ELISA, binding on a coated surface is turned into a signal by an enzyme label.

B1: 抗HIV-1 P24兔单克隆抗体OTIR5D12 (antibody, V domains shown)
VH: QSLEESGGRLVTPGTPLTLTCTASGFSLNSYYMTWVRQAPGKGLEWIGILDTSGSTDYASWAKGRFTISKTSTTVDLKVTSPTAADTATYFCARGAYYSAYGDAWGQGTLVTVSS
VL: AQVLTQTPSPVSAVLGGTVTINCQSSQSVYNSNWLSWFQQKPGQPPKLLIYKASNLASGVPSRFKGSGSGTQFTLTISSVQCDDAATYYCQGGYNNGDGFGGGTEVVVK
The molecule B1 yielded a 效价 (antibody titer) of 6.6e+06.
